Measurements from doi:10.1101/2023.09.01.555900 (bioRxiv, 2023).

Biological target: Rho factor (E. coli transcription termination factor Rho) (E. coli, UniProt P0AG30 1-419)
Experiment: SEC

Sequence of Rho factor (E. coli transcription termination factor Rho) (P0AG30 whole entry): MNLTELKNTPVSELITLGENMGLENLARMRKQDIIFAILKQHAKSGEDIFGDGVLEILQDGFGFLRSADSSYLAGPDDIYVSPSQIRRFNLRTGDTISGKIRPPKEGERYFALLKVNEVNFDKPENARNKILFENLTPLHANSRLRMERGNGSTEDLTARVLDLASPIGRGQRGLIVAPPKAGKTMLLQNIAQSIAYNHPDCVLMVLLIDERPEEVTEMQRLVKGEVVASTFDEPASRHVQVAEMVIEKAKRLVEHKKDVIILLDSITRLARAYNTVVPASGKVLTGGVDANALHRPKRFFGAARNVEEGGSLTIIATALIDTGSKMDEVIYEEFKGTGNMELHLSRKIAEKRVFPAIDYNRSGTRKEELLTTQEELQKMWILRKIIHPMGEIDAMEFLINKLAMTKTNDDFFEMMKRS

binding result: binds
B1: Rof (Rho-off, also called YaeO) (natural protein, E. coli)
chain: MNDTYQPINCDDYDNLELACQHHLMLTLELKDGEKLQAKASDLVSRKNVEYLVVEAAGETRELRLDKITSFSHPEIGTVVVSES
